Results taken from doi:10.1101/2024.12.12.628194.

How the values were obtained:
[1] = target: TaqCad1 (CARF-fused adenosine deaminase Cad1 from Thermoanaerobaculum aquaticum), wild type (Thermoanaerobaculum aquaticum); test: cryo-EM structure
[2] = target: TaqCad1 R408D/A411E variant (Thermoanaerobaculum aquaticum); test: SEC

stoichiometry N [1] | stoichiometry N [2] | Substance
6 | – | TaqCad1 (CARF-fused adenosine deaminase Cad1 from Thermoanaerobaculum aquaticum), wild type (enzyme)
– | 2 | TaqCad1 R408D/A411E variant (enzyme)
